We go through two substances from PMC11342882.

The experiment concerns the target FcRn with a C-terminal 6×His-tag and complexed with beta-2-microglobulin (UniProt P55899). In words: BLI. On the technique in general: Biolayer interferometry detects binding as a change in optical thickness at a sensor tip.

Chain of FcRn with a C-terminal 6×His-tag and complexed with beta-2-microglobulin (P55899 24-297, chain 1 of 2): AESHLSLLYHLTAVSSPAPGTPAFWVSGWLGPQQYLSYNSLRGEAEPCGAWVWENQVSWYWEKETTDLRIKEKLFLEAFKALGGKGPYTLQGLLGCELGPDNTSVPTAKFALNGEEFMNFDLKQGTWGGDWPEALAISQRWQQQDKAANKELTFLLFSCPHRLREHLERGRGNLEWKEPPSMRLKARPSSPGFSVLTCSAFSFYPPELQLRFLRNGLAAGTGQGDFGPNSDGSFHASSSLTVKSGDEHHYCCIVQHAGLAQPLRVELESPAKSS
Chain of FcRn with a C-terminal 6×His-tag and complexed with beta-2-microglobulin (P61769 21-119, chain 2 of 2, further chain): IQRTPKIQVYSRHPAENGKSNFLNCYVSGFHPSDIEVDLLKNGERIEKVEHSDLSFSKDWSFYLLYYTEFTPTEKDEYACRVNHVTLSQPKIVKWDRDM

Usually Kd stands for the equilibrium constant for the complex coming apart. A high value points to a looser complex. “sACE2_(2).v2.4-IgG1 (from UniProt Q9BYF1-1 18-732) (Fc fusion)” registered an equilibrium dissociation constant (Kd) of over 100 nM.
Regarding “sACE2_(2).v2.4-IgG1(YTE) from Expi293F (from UniProt Q9BYF1-1 18-732) (Fc fusion)”, the Kd stood at 21 nM.
